The values that follow come from patent US20210380679A1 (INHIBRX BIOSCIENCES, published 2021).

This test deals with T1, human DLL3 (Delta-like ligand 3) (human, UniProt Q9NYJ7 27-618).
T1 construct: endogenous on SHP-77 cells; also called cell-surface DLL3
T1 sequence: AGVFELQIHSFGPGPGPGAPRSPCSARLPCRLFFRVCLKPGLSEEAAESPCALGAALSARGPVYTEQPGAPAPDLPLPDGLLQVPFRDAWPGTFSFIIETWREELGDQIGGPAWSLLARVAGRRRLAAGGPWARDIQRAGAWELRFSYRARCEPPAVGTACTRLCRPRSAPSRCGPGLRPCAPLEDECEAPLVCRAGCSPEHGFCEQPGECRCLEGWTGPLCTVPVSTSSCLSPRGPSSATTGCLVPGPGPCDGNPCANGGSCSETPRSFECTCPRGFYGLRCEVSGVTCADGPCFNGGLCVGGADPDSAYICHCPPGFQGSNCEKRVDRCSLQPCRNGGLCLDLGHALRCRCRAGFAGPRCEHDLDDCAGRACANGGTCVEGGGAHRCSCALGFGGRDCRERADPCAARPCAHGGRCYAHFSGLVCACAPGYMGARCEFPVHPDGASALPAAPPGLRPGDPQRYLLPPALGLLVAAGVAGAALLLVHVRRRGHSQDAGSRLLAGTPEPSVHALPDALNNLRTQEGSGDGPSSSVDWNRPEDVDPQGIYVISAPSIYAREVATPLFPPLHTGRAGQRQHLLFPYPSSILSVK
Nature of the test: flow cytometry, sdAb-Fc titrated on SHP-77 cells (DLL3 positive), APC anti-human Fc secondary. As for the experimental part:
FIGS. 2A-L set forth a series of graphs depicting the ability of sdAb and humanized variants thereof targeting DLL3 to bind cell surface DLL3.
Specificity and relative affinity were assessed for purified sdAb-Fcs on DLL3-expressing cells. […] A titration series of the fusion protein was incubated with the DLL3-expressing cell lines (approximately 2.5×10⁴ to 5×10⁴ cells/well) for 30 minutes at 4 degrees Celsius in FACS Buffer (PBS 1% BSA, 0.1% NaN₃ pH 7.4) in 96-well plates. Following three wash steps in FACS buffer, an APC-conjugated anti-human Fcγ specific secondary antibody (Jackson ImmunoResearch) was added and incubated for 30 minutes at 4 degrees Celsius. Following three additional wash steps in FACS buffer bound antibody was detected via flow cytometry (IQue Intellicyte).
Background: A flow cytometer gives signals particle by particle.

B1: L6C5 (Fc fusion)
VHH: QVQLQESGGGLVQTGGSLTLSCGASEITFSDKTVGWYRQAPGKQRVLVAVISNVDSTNYAHSVKGRFTISRDNAKNTVYLQMNSLKPEDTAVYYCHARDFENEYWGRGTQVTVKP
notes: tested as VHH-human Fc; Fc not specified
Take B1: the binding result is on record as “binds”.

B2: hz6F1v4 (Fc fusion)
VHH: EVQLVESGGGEVQPGGSLRLSCGASEIIFSDKTVGWYRQAPGKQRVLVAVISNVDSTNYAESVKGRFTISRDNAKNTVYLQMSSLRAEDTAVYYCYARDFESEYWGQGTLVTVKP
notes: as for B1
Take B2: the binding result is listed as “binds”.

B3: hz6F1v7 (Fc fusion)
VHH: EVQLVESGGGEVQPGGSLRLSCAASEIIFSDKTVGWYRQAPGKQRVLVAVISNVDATNYAESVKGRFTISRDNAKNTVYLQMSSLRAEDTAVYYCYARDFESEYWGQGTLVTVKP
notes: as for B1
Regarding B3, the binding result is recorded as “binds”.

B4: hz8E7v3 (Fc fusion)
VHH: EVQLVESGGGEVQPGGSLRLSCGPSEIITSDKSVGWWRQAPGKQRNLVAGISNVGSTNYAQSVKGRFTISRDNAKNTLYLQMSSLRAEDTAVYYCYARDFENEYWGQGTLVTVKP
notes: as for B1
With B4, the binding result is recorded as “binds”.

B5: hz6F1v5 (Fc fusion)
VHH: EVQLVESGGGEVQPGGSLRLSCAASEIIFSDKTVGWYRQAPGKQRVLVAVISNVDSTNYAESVKGRFTISRDNAKNTVYLQMSSLRAEDTAVYYCYARDFESEYWGRGTQVTVKP
notes: as for B1
For B5, the binding result is given as “binds”.

B6: hz8E7v2 (Fc fusion)
VHH: EVQLVESGGGEVQPGGSLRLSCAASEIITSDKSVGWWRQAPGKQRNLVAGISNVGSTNYAQSVKGRFTISRDNAKNTLYLQMSSLRAEDTAVYYCYARDFENEYWGQGTLVTVKP
notes: as for B1
For B6, the binding result was “binds”.

B7: hz6F1v6 (Fc fusion)
VHH: EVQLVESGGGEVQPGGSLRLSCAASEIIFSDKTVGWYRQAPGKQRVLVAVISNVESTNYAESVKGRFTISRDNAKNTVYLQMSSLRAEDTAVYYCYARDFESEYWGQGTLVTVKP
notes: as for B1
Consider B7, for which the binding result was “binds”.

B8: hz8E7v1 (Fc fusion)
VHH: EVQLVESGGGEVQPGGSLRLSCAASEIITSDKSVGWWRQAPGKQRNLVAGISNVGSTNYAESVKGRFTISRDNAKNTLYLQMSSLRAEDTAVYYCYARDFENEYWGQGTLVTVKP
notes: as for B1
For the molecule B8, the binding result is “binds”.

B9: hz8E7v4 (Fc fusion)
VHH: EVQLVESGGGEVQPGGSLRLSCAASEIITSDKSVGWWRQAPGKQRNLVAGISNVGSTNYAQSVKGRFTISRDNAKNTLFLQMSSLRAEDTAVYYCYARDFENEYWGQGTLVTVKP
notes: as for B1
Take B9: the binding result was “binds”.

B10: hz5A8v2 (Fc fusion)
VHH: EVQLVESGGGEVQPGGSLRLSCAASGSIFSINAMGWYRQAPGKQRELVAVVSSDGRTTVAPSVKGRFTISRDNAKNTVYLQMSSLRAEDTAVYYCGVREWYSDSDWRDYEGQGTLVTVKP
notes: as for B1
For the molecule B10, the binding result is on record as “binds”.

B11: hz5A8v3 (Fc fusion)
VHH: EVQLVESGGGEVQPGGSLRLSCAASGSIFSINAMGWYRQVLGKQRELVAVVSSDGRTTVAPSVKGRFTISRDNAKNTVYLQMSSLRAEDTAVYYCGVREWYSDSDWRDYEGQGTLVTVKP
notes: as for B1
On to B11, for which the binding result is on record as “binds”.

B12: hz5A8v4 (Fc fusion)
VHH: EVQLVESGGGEVQPGGSLRLSCAASGSIFSINAMGWYRQAPGKQRELVAVVSSDGRTTVAPSVKGRFTISRDNAKNTVSLQMSSLRAEDTAVYYCGVREWYSDSDWRDYEGQGTLVTVKP
notes: as for B1
On to B12, for which the binding result is “binds”.

B13: hz5A8v1 (Fc fusion)
VHH: EVQLVESGGGEVQPGGSLRLSCAASGSIFSINAMGWYRQAPGKQRELVAVVSSDGRTTVAESVKGRFTISRDNAKNTVYLQMSSLRAEDTAVYYCGVREWYSDSDWRDYEGQGTLVTVKP
notes: as for B1
As to B13, the concentration giving a half-maximal response (EC50 (read off the curve)) (in general, the midpoint of the concentration-response curve) was around 2 nM.
